Source: patent publication US20140134183A1 (CELL MEDICA SWITZERLAND, published 2014)

How the values were obtained:
[1] = biological target: T1, recombinant human IL-1 beta (human, UniProt P01584 117-269); assay: cell-based or functional assay
[2] = biological target: T1, recombinant human IL-1 beta; assay: ELISA, cleared E. coli lysate on coated rhIL-1 beta
Procedure: The resulting scFv mutants are expressed in 96-well format in 1 ml cultures in E. coli BL21 (DE3) (Novagen, USA, cat. no. 69450-3). […] Cells were lysed in lysis buffer (1 mM EDTA, 0.1 mg/ml lysozyme, PBS pH 7.2) in a 96-well format by freezing and subsequent thawing. Derived crude extracts were cleared by centrifugation. Supernatants were added to wells of a microtiterplate coated with 50 ng/ml of rhIL-1 beta (Peprotech) per well. After washing, bound scFvs are detected by ProteinL-HRP and binding to rhIL-1 beta quantified by BM Blue POD Substrate (Roche Applied Science).

Binder	IC50 of IL-1 beta-induced IL-6 release from human dermal fibroblasts [1]	binding result [2]
DLX2464 (scFv) scFv: EIVMTQSPSTLSASVGDRVIITCQASQSIDNWLSWYQQKPGKAPKLLIYRASTLASGVPSRFSGSGSGAEFTLTISSLQPDDFATYYCQNTGGGVSIAFGQGTKLTVLGGGGGSGGGGSGGGGSGGGGSEVQLVESGGGLVQPGGSLRLSCTASGFSLSSAAMAWVRQAPGKGLEWVGIIYDSASTYYASWAKGRFTISRDTSKNTVYLQMNSLRAEDTAVYYCARERQIFSGDMAGWGQGTLVTVSS	4 pM	–
DLX2466 (scFv) scFv: EIVMTQSPSTLSASVGDRVIITCQASQSIGKYLSWYQQKPGKAPKLLIYRASTLASGVPSRFSGSGSGAEFTLTISSLQPDDFATYYCQNAGGGVSIAFGQGTKLTVLGGGGGSGGGGSGGGGSGGGGSEVQLVESGGGLVQPGGSLRLSCTASGFSLSSDAMAWVRQAPGKGLEWVGIIYDSASTYYASWAKGRFTISRDTSKNTVYLQMNSLRAEDTAVYYCARERNIFSGDMAGWGQGTLVTVSS	300 pM	–
DLX2465 (scFv) scFv: EIVMTQSPSTLSASVGDRVIITCQASQSIDNWLSWYQQKPGKAPKLLIYRASTLASGVPSRFSGSGSGAEFTLTISSLQPDDFATYYCQNTGGGVSIAFGQGTKLTVLGGGGGSGGGGSGGGGSGGGGSEVQLVESGGGLVQPGGSLRLSCTASGFSLSSAAMAWVRQAPGKGLEWVGIIYDSASTYYASWAKGRFTISRDTSKNTVYLQMNSLRAEDTAVYYCARERNIFSGDMDLWGQGTLVTVSS	4 pM	–
DLX2687 (scFv, tested as cleared E. coli lysate; also called DLX2543_2585) scFv: EIVMTQSPSTLSASVGDRVTITCQASQSISSWLSWYQQKPGKAPKLLIYKASTLASGVPSRFSGSGSGTEFTLTISSLQPDDFATYYCQNAGGGVSIAFGQGTKLTVLGGGGGSGGGGSGGGGSGGGGSEVQLVESGGGLVQPGGSLRLSCTVSGFSLSSYAMSWVRQAPGKGLEWVGIIYDSASTYYASWAKGRFTISKDTSKNTVYLQMNSLRAEDTAVYYCARERAIFSGDFDYWGQGTLVTVSS	–	binds
DLX2682 (scFv, tested as cleared E. coli lysate; also called DLX2529_2548) scFv: EIVMTQSPSTLSASVGDRVIITCRASQSIGNWLSWYQQKPGKAPKLLIYRASNLASGVPSRFSGSGSGAEFTLTISSLQPEDFATYYCQNTGGGINIAFGQGTKLTVLGGGGGSGGGGSGGGGSGGGGSEVQLVESGGGLVQPGGSLRLSCTVSGFSLSSYAMSWVRQAPGKGLEWIGIIYDSASTYYASWAKGRFTISKDTSKNTLYLQMNSLRAEDTAVYFCARERQIFSGDMDGWGQGTTVTVSS	–	binds
DLX2683 (scFv, tested as cleared E. coli lysate; also called DLX2529_2585) scFv: EIVMTQSPSTLSASVGDRVIITCRASQSIGNWLSWYQQKPGKAPKLLIYRASNLASGVPSRFSGSGSGAEFTLTISSLQPEDFATYYCQNTGGGINIAFGQGTKLTVLGGGGGSGGGGSGGGGSGGGGSEVQLVESGGGLVQPGGSLRLSCTVSGFSLSSYAMSWVRQAPGKGLEWVGIIYDSASTYYASWAKGRFTISKDTSKNTVYLQMNSLRAEDTAVYYCARERAIFSGDFDYWGQGTLVTVSS	–	binds
DLX2695 (scFv, tested as cleared E. coli lysate; also called DLX2547_2585) scFv: ADIVMTQSPSTLSASVGDRVTITCQASQSISSYLSWYQQKPGKAPKLLIYRASTLASGVPSRFSGSGSGAEFTLTISSLQPDDFATYYCQNTGGGINIAFGQGTKLEIKRGGGGSGGGGSGGGGSGGGGSEVQLVESGGGLVQPGGSLRLSCTVSGFSLSSYAMSWVRQAPGKGLEWVGIIYDSASTYYASWAKGRFTISKDTSKNTVYLQMNSLRAEDTAVYYCARERAIFSGDFDYWGQGTLVTVSS	–	binds
DLX2691 (scFv, tested as cleared E. coli lysate; also called DLX2544_2585) scFv: ADIVMTQSPSTLSASVGDRVTITCQASQSISSYLSWYQQKPGKAPKLLIYKASTLASGVPSRFSGSGSGTDFTLTISSLQPEDFATYYCQNAGGGINIAFGQGTKVEIKRGGGGSGGGGSGGGGSGGGGSEVQLVESGGGLVQPGGSLRLSCTVSGFSLSSYAMSWVRQAPGKGLEWVGIIYDSASTYYASWAKGRFTISKDTSKNTVYLQMNSLRAEDTAVYYCARERAIFSGDFDYWGQGTLVTVSS	–	binds
DLX2694 (scFv, tested as cleared E. coli lysate; also called DLX2547_2548) scFv: ADIVMTQSPSTLSASVGDRVTITCQASQSISSYLSWYQQKPGKAPKLLIYRASTLASGVPSRFSGSGSGAEFTLTISSLQPDDFATYYCQNTGGGINIAFGQGTKLEIKRGGGGSGGGGSGGGGSGGGGSEVQLVESGGGLVQPGGSLRLSCTVSGFSLSSYAMSWVRQAPGKGLEWIGIIYDSASTYYASWAKGRFTISKDTSKNTLYLQMNSLRAEDTAVYFCARERQIFSGDMDGWGQGTTVTVSS	–	binds
DLX2692 (scFv, tested as cleared E. coli lysate; also called DLX2547_2530) scFv: ADIVMTQSPSTLSASVGDRVTITCQASQSISSYLSWYQQKPGKAPKLLIYRASTLASGVPSRFSGSGSGAEFTLTISSLQPDDFATYYCQNTGGGINIAFGQGTKLEIKRGGGGSGGGGSGGGGSGGGGSEVQLVESGGGNVQPGGSLRLSCTASGFSLSDAAMAWVRQAPGKGLEWVGIIYDSASTFYASWAKGRFTISRDNSKNTLYLQMNSLRAEDTATYYCARERNIFSGDMALWGQGTTVTVSS	–	binds
DLX2684 (scFv, tested as cleared E. coli lysate; also called DLX2543_2530) scFv: EIVMTQSPSTLSASVGDRVTITCQASQSISSWLSWYQQKPGKAPKLLIYKASTLASGVPSRFSGSGSGTEFTLTISSLQPDDFATYYCQNAGGGVSIAFGQGTKLTVLGGGGGSGGGGSGGGGSGGGGSEVQLVESGGGNVQPGGSLRLSCTASGFSLSDAAMAWVRQAPGKGLEWVGIIYDSASTFYASWAKGRFTISRDNSKNTLYLQMNSLRAEDTATYYCARERNIFSGDMALWGQGTTVTVSS	–	binds
DLX2677 (scFv, tested as cleared E. coli lysate; also called DLX2528_2531) scFv: EIVMTQSPSTLSASVGDRVTITCQASQSIGNWLAWYQQKPGKAPKLLIYQASNLASGVPSRFSGSGSGTDFTLTISSLQPDDFATYYCQNAGGATTIAFGQGTKLTVLGGGGGSGGGGSGGGGSGGGGSEVQLVESGGGNVQPGGSLRLSCTASGFSLSNSAMAWVRQAPGKGLEWVGIIYDSASTYYASWAKGRFTISRDNSKNTVYLQMNSLRAEDTATYYCARERAIFSGDFALWGQGTLVTVSS	–	binds
DLX2685 (scFv, tested as cleared E. coli lysate; also called DLX2543_2531) scFv: EIVMTQSPSTLSASVGDRVTITCQASQSISSWLSWYQQKPGKAPKLLIYKASTLASGVPSRFSGSGSGTEFTLTISSLQPDDFATYYCQNAGGGVSIAFGQGTKLTVLGGGGGSGGGGSGGGGSGGGGSEVQLVESGGGNVQPGGSLRLSCTASGFSLSNSAMAWVRQAPGKGLEWVGIIYDSASTYYASWAKGRFTISRDNSKNTVYLQMNSLRAEDTATYYCARERAIFSGDFALWGQGTLVTVSS	–	binds
DLX2679 (scFv, tested as cleared E. coli lysate; also called DLX2528_2585) scFv: EIVMTQSPSTLSASVGDRVTITCQASQSIGNWLAWYQQKPGKAPKLLIYQASNLASGVPSRFSGSGSGTDFTLTISSLQPDDFATYYCQNAGGATTIAFGQGTKLTVLGGGGGSGGGGSGGGGSGGGGSEVQLVESGGGLVQPGGSLRLSCTVSGFSLSSYAMSWVRQAPGKGLEWVGIIYDSASTYYASWAKGRFTISKDTSKNTVYLQMNSLRAEDTAVYYCARERAIFSGDFDYWGQGTLVTVSS	–	binds
DLX2676 (scFv, tested as cleared E. coli lysate; also called DLX2528_2530) scFv: EIVMTQSPSTLSASVGDRVTITCQASQSIGNWLAWYQQKPGKAPKLLIYQASNLASGVPSRFSGSGSGTDFTLTISSLQPDDFATYYCQNAGGATTIAFGQGTKLTVLGGGGGSGGGGSGGGGSGGGGSEVQLVESGGGNVQPGGSLRLSCTASGFSLSDAAMAWVRQAPGKGLEWVGIIYDSASTFYASWAKGRFTISRDNSKNTLYLQMNSLRAEDTATYYCARERNIFSGDMALWGQGTTVTVSS	–	binds
DLX2678 (scFv, tested as cleared E. coli lysate; also called DLX2528_2548) scFv: EIVMTQSPSTLSASVGDRVTITCQASQSIGNWLAWYQQKPGKAPKLLIYQASNLASGVPSRFSGSGSGTDFTLTISSLQPDDFATYYCQNAGGATTIAFGQGTKLTVLGGGGGSGGGGSGGGGSGGGGSEVQLVESGGGLVQPGGSLRLSCTVSGFSLSSYAMSWVRQAPGKGLEWIGIIYDSASTYYASWAKGRFTISKDTSKNTLYLQMNSLRAEDTAVYFCARERQIFSGDMDGWGQGTTVTVSS	–	binds
DLX2680 (scFv, tested as cleared E. coli lysate; also called DLX2529_2530) scFv: EIVMTQSPSTLSASVGDRVIITCRASQSIGNWLSWYQQKPGKAPKLLIYRASNLASGVPSRFSGSGSGAEFTLTISSLQPEDFATYYCQNTGGGINIAFGQGTKLTVLGGGGGSGGGGSGGGGSGGGGSEVQLVESGGGNVQPGGSLRLSCTASGFSLSDAAMAWVRQAPGKGLEWVGIIYDSASTFYASWAKGRFTISRDNSKNTLYLQMNSLRAEDTATYYCARERNIFSGDMALWGQGTTVTVSS	–	binds
DLX2690 (scFv, tested as cleared E. coli lysate; also called DLX2544_2548) scFv: ADIVMTQSPSTLSASVGDRVTITCQASQSISSYLSWYQQKPGKAPKLLIYKASTLASGVPSRFSGSGSGTDFTLTISSLQPEDFATYYCQNAGGGINIAFGQGTKVEIKRGGGGSGGGGSGGGGSGGGGSEVQLVESGGGLVQPGGSLRLSCTVSGFSLSSYAMSWVRQAPGKGLEWIGIIYDSASTYYASWAKGRFTISKDTSKNTLYLQMNSLRAEDTAVYFCARERQIFSGDMDGWGQGTTVTVSS	–	binds
DLX2689 (scFv, tested as cleared E. coli lysate; also called DLX2544_2531) scFv: ADIVMTQSPSTLSASVGDRVTITCQASQSISSYLSWYQQKPGKAPKLLIYKASTLASGVPSRFSGSGSGTDFTLTISSLQPEDFATYYCQNAGGGINIAFGQGTKVEIKRGGGGSGGGGSGGGGSGGGGSEVQLVESGGGNVQPGGSLRLSCTASGFSLSNSAMAWVRQAPGKGLEWVGIIYDSASTYYASWAKGRFTISRDNSKNTVYLQMNSLRAEDTATYYCARERAIFSGDFALWGQGTLVTVSS	–	binds
